Data published in paper PMC8623585 (Vaccines, 2021).

Assays:
Human IL-6 receptor [1] = molecular target: T1, Human IL-6 receptor (Homo sapiens, UniProt P08887); test: cell-based or functional assay
Human IL-6 receptor [2] = molecular target: T1, Human IL-6 receptor; test: ELISA; human IL-6R (2 µg/mL) immobilised on microtiter plates; serial dilutions of pIL6RmAb; detected with HRP-conjugated anti-human-gamma HC antibody; KD by non-linear regression, one-site binding model; details: both partners purified

T1 sequence (P08887 20-365): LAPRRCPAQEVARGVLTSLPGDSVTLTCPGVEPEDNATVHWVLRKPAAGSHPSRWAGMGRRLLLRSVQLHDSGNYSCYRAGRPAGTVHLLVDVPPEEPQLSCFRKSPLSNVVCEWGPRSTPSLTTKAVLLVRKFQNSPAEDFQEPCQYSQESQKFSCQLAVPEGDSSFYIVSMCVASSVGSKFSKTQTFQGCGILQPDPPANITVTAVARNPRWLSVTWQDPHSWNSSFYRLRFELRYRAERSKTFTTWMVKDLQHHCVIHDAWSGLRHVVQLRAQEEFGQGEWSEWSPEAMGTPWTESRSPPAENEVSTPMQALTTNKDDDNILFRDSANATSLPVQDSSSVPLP

B1: Plant-produced IL6RmAb (anti-IL-6 receptor monoclonal antibody with the amino acid sequence of sarilumab) (antibody, V domains shown)
VH: EVQLVESGGGLVQPGRSLRLSCAASRFTFDDYAMHWVRQAPGKGLEWVSGISWNSGRIGYADSVKGRFTISRDNAENSLFLQMNGLRAEDTALYYCAKGRDSFDIWGQGTMVTVSS
VL: DIQMTQSPSSVSASVGDRVTITCRASQGISSWLAWYQQKPGKAPKLLIYGASSLESGVPSRFSGSGSGTDFTLTISSLQPEDFASYYCQQANSFPYTFGQGTKLEIK
notes: heavy chain of sarilumab; light chain of sarilumab; Full IgG1 with kappa light chain, heterotetramer of ~150 kDa; made in a glycoengineered N. benthamiana line; also called pIL6RmAb; anti-IL6R mAb; copies: 2 + 2
- IC50 of inhibition of IL-6 signaling in luciferase reporter cells (Promega IL-6 Bioassay) with 25 ng/mL (~1.19 nM) recombinant human IL-6; blocks IL-6 with IL-6R (Human IL-6 receptor [1]): 0.081 µg/mL
- IC50 of inhibition of IL-6 signaling in luciferase reporter cells (Promega IL-6 Bioassay) with 25 ng/mL (~1.19 nM) recombinant human IL-6; blocks IL-6 with IL-6R (the same IC50 in molar units) (Human IL-6 receptor [1]): ~0.54 nM
- Kd (Human IL-6 receptor [2]): 0.083 nM
